This is an account of results in publication PMC9563463, “PARP1-MGMT complex underpins pathway crosstalk in O^6-methylguanine repair” (Journal of Hematology & Oncology, 2022).

In this assay the target is T1, full-length PARP1, purified recombinant (UniProt P09874 1-1014).
T1 construct: PARP1, full length; also called purified PARP1; source: purified recombinant
As to the kind of experiment: MST; Monolith NT.115, 17% LED power, medium MST power, MST-on time of 10 s; full-length proteins. The settings on record: both partners purified.

T1 sequence (P09874 whole entry): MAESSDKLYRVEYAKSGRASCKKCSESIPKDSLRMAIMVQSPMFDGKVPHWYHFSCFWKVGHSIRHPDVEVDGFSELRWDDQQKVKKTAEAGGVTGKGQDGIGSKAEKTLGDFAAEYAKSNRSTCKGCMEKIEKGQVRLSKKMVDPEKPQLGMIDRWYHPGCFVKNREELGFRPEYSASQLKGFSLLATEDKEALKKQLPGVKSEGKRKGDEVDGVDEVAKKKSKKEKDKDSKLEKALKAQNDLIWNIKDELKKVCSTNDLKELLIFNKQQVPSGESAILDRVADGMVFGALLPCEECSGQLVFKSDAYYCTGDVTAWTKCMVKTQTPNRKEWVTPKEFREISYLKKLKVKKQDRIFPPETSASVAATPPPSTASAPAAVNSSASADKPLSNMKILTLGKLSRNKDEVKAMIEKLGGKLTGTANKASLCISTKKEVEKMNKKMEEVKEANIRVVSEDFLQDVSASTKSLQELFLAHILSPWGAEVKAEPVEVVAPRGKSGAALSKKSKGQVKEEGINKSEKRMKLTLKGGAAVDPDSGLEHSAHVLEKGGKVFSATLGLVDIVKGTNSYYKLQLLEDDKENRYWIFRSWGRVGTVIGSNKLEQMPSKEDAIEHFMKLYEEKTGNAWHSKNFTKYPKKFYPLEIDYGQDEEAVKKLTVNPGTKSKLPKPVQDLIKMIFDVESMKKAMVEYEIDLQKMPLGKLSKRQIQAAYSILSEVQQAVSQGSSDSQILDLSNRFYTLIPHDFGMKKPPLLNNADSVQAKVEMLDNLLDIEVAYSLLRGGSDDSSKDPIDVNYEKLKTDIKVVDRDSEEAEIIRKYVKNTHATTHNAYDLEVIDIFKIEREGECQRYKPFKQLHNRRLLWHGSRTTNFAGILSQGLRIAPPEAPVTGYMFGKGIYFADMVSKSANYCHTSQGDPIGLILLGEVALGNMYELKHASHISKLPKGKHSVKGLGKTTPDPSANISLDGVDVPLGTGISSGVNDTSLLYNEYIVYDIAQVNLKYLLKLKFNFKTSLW

B1: full-length MGMT, purified recombinant (natural protein, UniProt P16455 1-207, looked up)
chain: MDKDCEMKRTTLDSPLGKLELSGCEQGLHEIKLLGKGTSAADAVEVPAPAAVLGGPEPLMQCTAWLNAYFHQPEAIEEFPVPALHHPVFQQESFTRQVLWKLLKVVKFGEVISYQQLAALAGNPKAARAVGGAMRGNPVPILIPCHRVVCSSGAVGNYSGGLAVKEWLLAHEGHRLGKPGLGGSSGLAGAWLKGAGATSGSPPAGRN
notes: MGMT, full length; also called purified MGMT; source: purified recombinant
Regarding B1, the Kd was determined as 165 nM.
